Reference: patent US12083109B2, “Neurokinin antagonists and uses thereof” (California Institute of Technology, priority 2017, dated 2024)
Entries after “also recorded” stand apart in the source; their conditions may differ.

Tested on: Tac2 mRNA
Assay: Tac2 mRNA knockdown by FISH and qRT-PCR in brain of shRNA mice
Format: in vivo, mouse
Settings: for knockdown of Tac2 mRNA (efficacy of shRNA): FISH and qRT-PCR; for Tac2 mRNA in CeA / Tac2 mRNA in DMH / Tac2 mRNA in dBNSTa: FISH fluorescence / qRT-PCR vs luciferase shRNA control
Description: Fluorescent in situ hybridization (FISH) was carried out according to the protocol described in (Thompson et al., 2008; incorporated by reference in its entirety) with modifications. Briefly, mice were transcardially perfused with 1×PBS followed by 4% paraformaldehyde/PBS (PFA) in 1×PBS. Brains were fixed in 4% PFA for 3-4 hours at 4° C., and cryoprotected overnight in 15% sucrose at 4° C. Brains were embedded in OCT Compound (Fisher Scientific) and cryosectioned at 30 μm thickness and mounted on Superfrost Plus slides (Fisher Scientific). Sections were fixed in 4% PFA for 30 minutes, acetylated with 0.25% acetic anhydride in 0.1 M triethanolamine for 10 minutes, dehydrated with increasing concentrations of EtOH (50, 70, 95 and 100%), gently treated with proteinase K ([…] in 0.01M Tris-HCl pH 7.4 and 0.001M EDTA) for 10 minutes, and fixed in 4% PFA for 20 minutes. All procedures were performed at room temperature (RT). The hybridization buffer contained 50% deionized formamide, 3× standard saline citrate (SSC), 0.12 M PB (pH 7.4), 10% dextran sulfate, 0.12 mg/ml yeast tRNA, 0.1 mg/mL calf thymus DNA, and 1× Dehardt solution. The sections were prehybridized at 63° C. in hybridization buffer for 30 minutes and then hybridized with the digoxigenin-labeled Tac2 RNA probe (300 ng/ml) in hybridization buffer at 63° C. for 16 hours. After hybridization, the sections were washed with 5×SSC for 10 minutes, 4×SSC/50% formamide for 20 minutes, 2×SSC/50% formamide for 30 minutes, and 0.1×SSC for 20 minutes twice each at 61° C. The sections were blocked with 4% sheep serum in TNT buffer (Tris-HCl pH7.5, 0.15 M NaCl and 0.00075% Tween 20) for 30 minutes and TNB Blocking buffer (TSA blocking reagent, PerkinElmer, Waltham, MA) for 30 minutes at RT. The sections were incubated overnight at RT with anti-digoxigenin-POD antibody (1:600, Roche Diagnostics) in TNB buffer. The sections were washed with TNT buffer and tyramide-biotin signal amplification was performed using the TSA Plus Biotin Kit (PerkinElmer). Signals were visualized after 1 hour incubation with Alexa Fluor 594 Streptavidin (Jackson ImmunoResearch) or Alexa Fluor 488 Streptavidin (Invitrogen) at RT. Sections were counterstained with DAPI ([…] in PBS), washed with 1×PBS, and coverslipped using Fluoro-Gel with Tris Buffer (Electron Microscopy Sciences). Tissue images of entire coronal brain sections were taken using an Olympus VS120-S6-W slide-scanner and cells positive for the probe were counted. Cell Counting
Following confocal or slide-scanner imaging, quantification of labeled cells was performed using ImageJ and Metamorph. Cells were counted by an observer blind to experimental conditions. Brain images were converted to greyscale (16-bit) in ImageJ and adjusted using automatic thresholding and watershed separation. Cells were either counted automatically using ImageJ's particle analysis algorithm (random sections were counted manually to cross-check that automated scoring was consistent with manual human scoring); otherwise, cells were counted manually using MetaMorph. Cells that were not entirely contained within a given region of interest (ROI) were excluded from analyses. Relative fluorescent intensities were measured automatically using MetaMorph for a given ROI. Raw cell counts within an ROI were divided by the size of the ROI (mm^2) to produce the number of positively labeled cells/mm^2.
Group housed or isolated (30 minutes, 24 hours, 2 weeks) mice were decapitated and brains were quickly removed and placed in RNA Later (Qiagen) at 4° C. Tissue from dBNSTa, DMH, CeA, ACC, and dHPC was microdissected and placed in RNA Later. Tissue was then homogenized and RNA purified using an RNAeasy Plus Mini Kit (Qiagen). 150ng of total RNA/region/condition was then incubated with 3 μl of Turbo DNase, 1 μl of Murine RNase Inhibitor in 1× Turbo DNase buffer for 15 minutes at 37° C. to remove any contaminating genomic DNA. […]

Molecule	knockdown of Tac2 mRNA (efficacy of shRNA)	Tac2 mRNA in CeA	Tac2 mRNA in DMH	Tac2 mRNA in dBNSTa
shRNA-2: small hairpin RNA for mouse Tac2 gene (SEQ ID NO: 11, 12), expressed from AAV5-H1-shRNA-CMV-zsGreen (nucleic acid) chain 1: CCGCCTCAACCCCATAGCAATTAGCTTCCTGTCACTAATTGCTATGGGGTTGAGGCTTTTTT chain 2: AAAAAAGCCTCAACCCCATAGCAATTAGTGACAGGAAGCTAATTGCTATGGGGTTGAGGCGG	proved effective; also recorded: strongest reductions; also recorded: stronger knockdown	appeared reduced	reduced	reduced
shRNA-1: small hairpin RNA for mouse Tac2 gene (SEQ ID NO: 9, 10), expressed from AAV5-H1-shRNA-CMV-zsGreen (nucleic acid) chain 1: CCGACGTGGTTGAAGAGAACACCGCTTCCTGTCACGGTGTTCTCTTCAACCACGTCTTTTTT chain 2: AAAAAAGACGTGGTTGAAGAGAACACCGTGACAGGAAGCGGTGTTCTCTTCAACCACGTCGG	proved effective	appeared reduced	reduced	reduced
